Results: the supplement of paper PMC12764529
± gives the half width of the 95% confidence interval.

Legend:
[1] = folding stability dG unfold (combined trypsin and chymotrypsin); higher = more stable
In short: (§1)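 Sequencing followed digestion of designed mini-proteins with trypsin and chymotrypsin, each at 11 concentrations in threefold dilutions together with a no-protease condition. The mini-proteins were under 80 residues, had no cysteine, sat in a PA-tagged cDNA display construct, and were kept only if AlphaFold2 dimer inter-PAE was above 15. From the counts, Bayesian fitting gave K50, and unfolding free energy was derived against a sequence-predicted unfolded-state K50 and a shared folded-state K50, per protease or combined.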

[2] = folding stability dG unfold from trypsin proteolysis; higher = more stable
In short: as §1

[3] = folding stability dG unfold from chymotrypsin proteolysis; higher = more stable
In short: as §1

Row | Sequence | folding stability dG unfold [1] [kcal/mol] | folding stability dG unfold [2] [kcal/mol] | folding stability dG unfold [3] [kcal/mol]
1 | SAGGSAGGSAMKIVKITTTQLPNGTTKVTVTFSDGSTKTVTIPPNQPGKSAEEVAKKVLLESAGGSAGGSAG [r3_368_JUSTAS] | 2.96 ± 0.087 | 1.8 ± 0.055 | 3.37 ± 0.054
2 | SAGGSAGGSAGGKEKKELYVVIKVDKNMTPEEIAEKLKKEFNVDKVEVEVREDGYLVVKVSAGGSAGGSAGG [r7_273_TrROS_Hall] | 1.62 ± 0.19 | 1.03 ± 0.098 | 1.74 ± 0.084
3 | SAGGSAPSVFPFKAKFKDYDLEIKSITVYENGEVEINAIAYNPDGKKKVELNITLPYSEILDLLKSSAGGSA [r15_56_TrMRF] | 2.55 ± 0.094 | 2.35 ± 0.059 | 2.68 ± 0.037
4 | SAGGSAEIEGLEFEIVEVTEVRVLPDGTVEITLRVRLPDGSYLRITITVSPDGTVTIDIELLPADESAGGSA [r15_559_TrROS_Hall] | 4.48 ± 0.18 | 4.51 ± 0.21 | 4.18 ± 0.1
5 | SAGGSAGGSAGGKLKPGQKVLVIELKVTKVKTKKDGKKEFEFEITRIEIVEVPEGAKILSAGGSAGGSAGGS [r10_826_TrROS_Hall] | 1.46 ± 0.14 | 1.78 ± 0.051 | 1.01 ± 0.051
6 | SAGGMVLVRIRVDMSPEERKRLEEELRKRVTEVRYLPEDEDVVEVRVSPEALAELPEERITEVELLPSAGGS [r16_328_TrROS_Hall] | -0.0298 ± 0.097 | 0.217 ± 0.15 | -0.654 ± 0.32
7 | SAGFSITVDYEPEKGLWTVTFTSPPSTSPLSPEEVKETAREIAEKQGIKYELIEISREGNTWTMTIKVLSAG [r14_556_JUSTAS] | 5.39 ± 0.13 | 4.25 ± 0.18 | 5.48 ± 0.082
8 | SAGGSAMEIKTLETKTVKTEKLPDGSTKVTTTYKTVDPSGGKTSNYIKTTLYAPDGKKTSTEVKEKSAGGSA [r15_758_JUSTAS] | 0.773 ± 0.1 | 0.355 ± 0.048 | 1.03 ± 0.098
9 | SAGGMTIEELLKKNPELKELVKKGYVIEITYPDGKKETIKISEEDLKKILDDIKKKTNKPVEIKILPSAGGS [r16_655_TrROS_Hall] | 1.54 ± 0.32 | 1.05 ± 0.081 | 1.82 ± 0.17
10 | SAGGDALKGLPPGAKVKVERVNGKLVVVVEKVEVKPPPKVTLTLPPGWKLTRLELTEDGTLKAELEPSAGGS [r16_103_TrROS_Hall] | 1.79 ± 0.23 | 1.4 ± 0.053 | 2.13 ± 0.068
11 | SAGGEGKEDKKIKVLFINVPVDKPDLLLKLAKEIIEKKEYDIIIVDHPENYKALKEAFPEYDIPIILGSAGG [r13_353_TrMRF] | 3.29 ± 0.069 | 2.04 ± 0.064 | 3.673 ± 0.022
12 | SAGGKIPPGMKLEIEDINIEFYNNGWIKITVKMTIWAPDGKTMTMTMTIVIPIRPPPPPPNDPENNESAGGS [r8_90_TrROS] | 4.29 ± 0.44 | 3.91 ± 0.45 | 4.77 ± 0.24
13 | SAGGSAGGSAGGKPKVIEIEITDKNGKKRKIKLIEKDGYVYLYDEKTGKLVKKFKLKDLSAGGSAGGSAGGS [r10_589_TrROS_Hall] | 3.61 ± 0.14 | 3.04 ± 0.097 | 3.92 ± 0.051
14 | SAGGSAGGSMKKIKIEVYNKDGSKTELPLSEILKLYDFDAEEIKKFLEKLFPKDVKFKIEIEGSAGGSAGGS [r12_399_TrMRF] | 2.31 ± 0.17 | 1.33 ± 0.061 | 2.53 ± 0.05
15 | SAHITISIEVPLPNLKGQTPEEAREVAKDKAREIAKMFNPEFGIKVKEVEVEPHPDEGWLKVDITFEPKSAG [r14_310_TrROS] | 0.824 ± 0.2 | 0.998 ± 0.058 | 0.596 ± 0.05
16 | SAGGSGIEAAILEAVEKGLNPVELTFRLPEDGKLVVLKVEVLDVLDGGAIVKVEMEVYDPENPKKISAGGSA [r2_420_TrMRF] | 1.83 ± 0.1 | 1.06 ± 0.089 | 2.14 ± 0.063
17 | SAAPDEVVTLEFTVPVVTTFEPGAPYVAPARLTVTFHPPDRVEIRLVSPDGRLVATRTVPPSVLLSEVISAG [r14_559_TrMRF] | 1.88 ± 0.081 | 1.62 ± 0.032 | 2.03 ± 0.041
18 | SAGGSAGGSAGWLMIMFPIPPNADNVRIKWPDGPTQEHEMEPGSPVMIMIPPGNIKIEVDSAGGSAGGSAGG [r11_52_TrROS] | 1.21 ± 0.1 | 1.13 ± 0.054 | 1.24 ± 0.091
19 | SAGGSAGGSAGGWVIRVTIKHPNGKKRTIMIPMPPDNIEEVAKNLMPQGYEIKEPEIFPGSAGGSAGGSAGG [r7_159_TrROS] | 0.813 ± 0.26 | 0.295 ± 0.12 | 0.902 ± 0.36
20 | SAGMKTVTVKVKISEEEREKLKELGFEIVEEKEDYLVIKVKVPPELSEEELEEAKKEGMTLEEALAKLSAGG [r19_115_TrROS_Hall] | 1.74 ± 0.27 | 2.05 ± 0.12 | 1.71 ± 0.077
21 | SAGGMVDVTITFTKPDGTPETRPIPASSLPLEELVARIRALREAGVEAEVELPPSLPEEVREALARLLSAGG [r13_251_JUSTAS] | 1.96 ± 0.053 | 1.78 ± 0.039 | 2.09 ± 0.071
